Measured values published in publication PMC3073974, “A Model of a MAPK•Substrate Complex in an Active Conformation: A Computational and Experimental Approach” (PLoS ONE, 2011).
Residues, ends and D or L forms follow the SMILES beside them.

What was measured:
ERK2 [1] = molecular target: T1, ERK2 (Rattus norvegicus, UniProt P63086); assay: Steady-state kinetics: inhibition of Ets phosphorylation by ERK2; format: biochemical; conditions: 1 mM MgATP
T1 construct: made in house
Protocol: Activated tagless ERK2 was generated essentially as described in (Kaoud, T.S. et al. manuscript in preparation). Expression and purification of Ets-1 (1-138) was followed by the method described in the previously published literature.
(§1) zReactions were carried out at 27°C in kinase assay buffer (25 mM HEPES pH 7.4, 100 mM KCl, 2 mM DTT, 40 µg/mL BSA, and 20 mM MgCl2) containing 2 nM ERK2 and varied concentrations of substrates and inhibitors. Rates were measured under conditions where total product formation represented less than 10% of the initial substrate concentrations. The reaction was incubated for 10 min before initiation by addition of enzyme and quantified as described previously. Initial rates were determined by linear least squares fitting to plots of product against time. Reciprocal plots of 1/v against 1/s were checked for linearity, before the data were fitted to eqn. 1 using a non-linear least squares approach, assuming equal variance for velocities, using the program Kaleidagraph 3.5 (Synergy software). The intercepts [drawing 1] and slopes [drawing 2] obtained from these fits were then plotted against either the inhibitor concentration (i) (for inhibition experiments) or the reciprocal of the non-varied substrate concentration (1/s) (for initial velocity experiments). These plots were used to determine the appearance of the overall kinetic equation. Values for kinetic constants were then obtained using the program Scientist (Micromath) by fitting the kinetic data to the relevant over-all equation. Data conforming to a sequential initial velocity pattern were fitted to eqn 2; data conforming to linear competitive inhibition were fitted to eqn. 3; data conforming to hyperbolic mixed inhibition were fitted to eqn. 4. Dose-response curves for data conforming to linear inhibition were fitted to eqn. 5; and for data conforming to hyperbolic inhibition to eqn. 6. [drawing 3] (1) [drawing 4] (2) [drawing 5] (3) [drawing 6] (4) [drawing 7] (5) [drawing 8] (6)

ERK2 [2] = molecular target: T1, ERK2; assay: Steady-state kinetics: inhibition of Δ23N-Ets phosphorylation by ERK2; format: biochemical; conditions: Δ23N-Ets 50 µM, 1 mM MgATP, Lig-D 0–200 µM (eqn 6) or Lig-F 0–400 µM (eqn 5); fitted k0 5.5±0.1 s^−1 (Lig-D), 5.4±0.1 s^−1 (Lig-F); read-out: K50, concentration giving half the maximal change in kobs for phosphorylation of Δ23N-Ets
Protocol: as §1, with “Data conforming to a sequential initial velocity pattern were fitted to eqn 2; data conforming to linear competitive inhibition were fitted to eqn. 3; data conforming to hyperbolic mixed inhibition were fitted to eqn. 4. Dose-response curves for data conforming to linear inhibition were fitted to eqn. 5; and for data conforming to hyperbolic inhibition to eqn. 6. [drawing 3] (1) [drawing 4] (2) [drawing 5] (3) [drawing 6] (4) [drawing 7] (5) [drawing 8] (6)” left out

ERK2 [3] = molecular target: T1, ERK2; assay: Steady-state parameters for phosphorylation of Ets and N-terminal Ets mutants by ERK2; format: biochemical; conditions: phosphorylation by ERK2 (2 nM), 27°C
Protocol: pET-28a Ets was PCR amplified with a forward primer containing an NdeI site (encoding the initial methionine) followed by the codon encoding Phe-24 (5′-GG GAATTCCATATGTTCCCTTCCCCGGACATG-3′) and an outer reverse primer (5′-GCTAGTTATTGCTCAGCGGTGG-3′) using the following PCR conditions: 94°C for 5 min to denature the complementary strands; 30 cycles of 55°C for 30 sec to anneal the primers, extension for 1 min at 72°C, followed by a denaturation step at 94°C for 45 sec; complementary strands were extended a final 10 min at 72°C. The N-terminal mutant PCR product was digested with NdeI and HindIII and ligated into NdeI-HindIII digested pET-28a. All proteins produced from pET-28a have an N-terminal sequence of […]- prior to the initial methionine encoded by the Ets cDNA giving EtsΔ24-138 an approximate mass of 15, 391 Da whereas Ets 1-138 has a mass of 17, 681 Da (lacking the initial methionine).
pET28a-Ets was modified by overlap extension polymerase chain reaction to construct the single cysteine mutant of Ets (C99A/C106A/C112A) in an Ets S26A background as reported elsewhere. Mutations were produced by a single-step PCR reaction using the following PCR amplification reaction (50 µL) contained Phusion DNA polymerase GC buffer, 200 µM each of the four deoxynucleoside triphosphates, 2 mM MgCl2, 3% DMSO, 80 ng of template DNA (Ets-C31 pET28a vector), 0.5 µM primers forward and reverse, and 1 µL of Phusion DNA polymerase (Finnzymes, USA, Product # F-530-S). […]
zReactions were carried out at 27°C in kinase assay buffer (25 mM HEPES pH 7.4, 100 mM KCl, 2 mM DTT, 40 µg/mL BSA, and 20 mM MgCl2) containing 2 nM ERK2 and varied concentrations of substrates and inhibitors. Rates were measured under conditions where total product formation represented less than 10% of the initial substrate concentrations. The reaction was incubated for 10 min before initiation by addition of enzyme and quantified as described previously. Initial rates were determined by linear least squares fitting to plots of product against time. […]

ERK2 [4] = molecular target: T1, ERK2; conditions: stopped-flow; cited from earlier work
Source text: Since the seminal paper by Wright the role of intrinsically disordered regions of proteins has been a topic of great interest. […] In fact, many docking sites for the DRS of a MAPK are found at the extreme termini of MAPK ligands, such as the upstream activators the MKKs, and may be disordered. For examp ...

[5] = fit of Lig-D inhibition data (Fig. 5D), eqn 4, Ets 3–59 µM
[6] = fit of Lig-F inhibition data (Fig. 5B), eqn 3, Ets 2–12 µM
[7] = 25 mM HEPES pH 7.4, 100 mM KCl, 20 mM MgCl2

T1 sequence (P63086 whole entry): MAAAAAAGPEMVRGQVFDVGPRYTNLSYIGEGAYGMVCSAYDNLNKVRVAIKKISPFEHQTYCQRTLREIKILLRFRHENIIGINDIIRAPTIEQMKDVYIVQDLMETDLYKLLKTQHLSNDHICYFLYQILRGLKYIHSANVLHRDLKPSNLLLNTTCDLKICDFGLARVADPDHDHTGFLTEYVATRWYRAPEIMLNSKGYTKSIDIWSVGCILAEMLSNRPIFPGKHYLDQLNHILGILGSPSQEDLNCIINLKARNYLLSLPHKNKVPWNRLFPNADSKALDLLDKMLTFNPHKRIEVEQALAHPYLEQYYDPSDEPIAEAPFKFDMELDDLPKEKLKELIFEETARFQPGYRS

**Q.** With CC(=O)N[C@@H](Cc1ccc(O)cc1)C(=O)N[C@@H](C)C(=O)N1CCC[C@H]1C(=O)N[C@@H](CCCNC(=N)N)C(=O)N[C@@H](C)C(=O)N1CCC[C@H]1C(=O)N[C@@H](C)C(=O)N[C@@H](CCCCN)C(=O)N[C@@H](CC(C)C)C(=O)N[C@@H](C)C(=O)N[C@@H](Cc1ccccc1)C(=O)N[C@@H](CCC(N)=O)C(=O)N[C@@H](Cc1ccccc1)C(=O)N1CCC[C@H]1C(=O)N[C@@H](CO)C(=O)N[C@@H](CCCNC(=N)N)C(N)=O [Lig-F] (Ac-YAPRAPAKLAFQFPSR-NH2) as the molecule, how does the IC50 (ERK2 [1]; Ets 6.4 µM, peptide 0–400 µM, 2 nM ERK2, 27°C, HEPES pH 7.4, fit eqn 6 (Lig-D, partial) or eqn 5 (Lig-F, full), fitted k0 8.0±0.2 s^−1 (Lig-D), 10.3±0.2 s^−1 (Lig-F), read-out: K50, concentration giving half the maximal change in kobs for phosphorylation of Ets) read?
**A.** 33.5 ± 1.9 µM

**Q.** What about the Ki (ERK2 [1]; Lig-F 0–200 µM, Ets 2–12 µM, fit eqn 3, read-out: apparent competitive inhibition constant (Ki), full linear competitive inhibition vs Ets) of the same molecule?
**A.** 22 ± 1.9 µM

**Q.** And the IC50 (ERK2 [2])?
**A.** 43 ± 2 µM

B1: Ets: His-tagged murine Ets-1 residues 1-138, ERK2 substrate; N-terminus MKAAVDLKPTLTII (protein, UniProt P27577 1-138, looked up, fragment)
chain: MKAAVDLKPTLTIIKTEKVDLELFPSPDMECADVPLLTPSSKEMMSQALKATFSGFTKEQQRLGIPKDPRQWTETHVRDWVMWAVNEFSLKGVDFQKFCMSGAALCALGKECFLELAPDFVGDILWEHLEILQKEDVK
modifications: His tag
**Q.** What does the source list for B1?
**A.** apparent Michaelis constant for Ets (ERK2 [1]; [5]): 6.3 ± 1.7 µM; apparent catalytic constant for Ets phosphorylation (ERK2 [1]; [5]): 14.1 ± 1.3 s⁻¹; apparent Michaelis constant for Ets (ERK2 [1]; [6]): 5.6 ± 0.7 µM; apparent catalytic constant for Ets phosphorylation (ERK2 [1]; [6]): 14.9 ± 0.8 s⁻¹; k cat/K m (ERK2 [3]; 25 mM HEPES pH 7.4): 1e+06 M⁻¹ s⁻¹; K m (ERK2 [3]; [7]): 17.0 ± 4.0 µM; k cat (ERK2 [3]; [7]): 18.0 ± 2.0 s⁻¹

B2: phospho Ets: Ets phosphorylated by ERK2 (on Thr-38), product of the reaction (protein, UniProt P27577 1-138, looked up, fragment)
chain: B1 chain
modifications: phosphorylated Thr38; His tag
notes: Ets phosphorylated by ERK2 (on Thr-38), product of the reaction
**Q.** With B2 as the molecule, how does the “rate constant for association k on” value (ERK2 [4]) read?
**A.** 5e+06 M⁻¹ s⁻¹

**Q.** What about the “rate constant for dissociation k” value (ERK2 [4]) of the same molecule?
**A.** > 100 s⁻¹
